In publication PMC11871066, “Structure-based discovery of hydrocarbon-stapled paxillin peptides that block FAK scaffolding in cancer” (Nature Communications, 2025) one finds Ki and Kd data, which are given here for 14 molecules.

The target in assay [1] is T1, recombinant FAK FAT protein (fluorescence polarisation assay) (human).
T1 construct: focal adhesion kinase (FAK), focal adhesion targeting (FAT) domain
The assay can be described thus: fluorescence polarisation; competition: FAT 25 µM, TAMRA-LD2 L10D probe 0.1 µM, peptide titrated from 1.25 mM, 3 h; 20 mM Tris-Cl pH 8.0, 200 mM NaCl, 0.05% β-mercaptoethanol, 0.1% Triton-X 100, 5% glycerol; Ki calculated from IC50. Particulars: both partners purified.

Assay [2] addresses T2, biotinylated AviTag FAK FAT protein (human, biotin).
T2 construct: focal adhesion kinase (FAK), focal adhesion targeting (FAT) domain; captured on a streptavidin biosensor; also called focal adhesion targeting (FAT) domain
The assay can be described thus: SPR; biotinylated AviTag FAT immobilised on a streptavidin (SADH) biosensor, ForteBio Pioneer FE, OneStep gradient injection at 150 µl/min; 100 mM Tris-Cl pH 8.0, 200 mM NaCl, 0.05% Tween-20; peptides 200 µM to 97 nM; KD from kinetic data, one-site model. Particulars: both partners purified. For orientation: In SPR one partner is held on a chip, and binding of the other changes the refractive index at the surface.

Bridge positions count the residues as written; N and C are the ends. Square brackets hold non-standard residues; d marks the D form. R8 = C=CCCCCCC[C@@](C)(N)C(=O)O; R5 = C=CCCC[C@@](C)(N)C(=O)O; S5 = C=CCCC[C@](C)(N)C(=O)O Bounds are passed on as bounds.

B1: stapled peptide 1920 (lengthened 1907) (peptide)
chain: Ac-SLGSNL[R8]ELDRLL[S5]ELNAVQH-NH2
modifications: staple 7-14
SMILES: CC(=O)N[C@@H](CO)C(=O)N[C@@H](CC(C)C)C(=O)NCC(=O)N[C@@H](CO)C(=O)N[C@@H](CC(N)=O)C(=O)N[C@@H](CC(C)C)C(=O)N[C@]1(C)CCCCCCC=CCCC[C@@](C)(C(=O)N[C@@H](CCC(=O)O)C(=O)N[C@@H](CC(C)C)C(=O)N[C@@H](CC(N)=O)C(=O)N[C@@H](C)C(=O)N[C@H](C(=O)N[C@@H](CCC(N)=O)C(=O)N[C@@H](Cc2c[nH]cn2)C(N)=O)C(C)C)NC(=O)[C@H](CC(C)C)NC(=O)[C@H](CC(C)C)NC(=O)[C@H](CCCNC(=N)N)NC(=O)[C@H](CC(=O)O)NC(=O)[C@H](CC(C)C)NC(=O)[C@H](CCC(=O)O)NC1=O
One may read the Ki as the dissociation constant of the complex between target and ligand, obtained from inhibition or displacement. Take B1: the Ki in assay [1] is 25 µM.
In general, Kd refers to a measure of binding affinity in units of concentration. Higher therefore signals weaker binding. Take Ac-NLS[R8]LDRLLL[S5]LN-NH2 (staple 4-11) [stapled peptide 1905]: in assay [1], the Ki was more than 1250 µM. This molecule registered a dissociation constant Kd in assay [2] of 146 µM.
Taken in the same sequence, the figures for Ac-NLSELDR[S5]LLE[S5]N-NH2 (staple 8-12) [stapled peptide 2015] were 114 µM and 30.6 µM.
Turning to Ac-NLSE[S5]DRL[S5]LELN-NH2 (staple 5-9) [stapled peptide 1919], the Ki in assay [1] is 38.6 µM. The same molecule came in with a Kd in assay [2] of 80.6 µM.
Taken in the same sequence, the figures for Ac-NL[R8]ALDRLL[S5]ELN-NH2 (staple 3-10) [stapled peptide 2009] were 26.7 µM and 3.4 µM.
Taken in the same sequence, the figures for Ac-NL[R8]EWDRLL[S5]EWN-NH2 (staple 3-10) [stapled peptide 1933] were 281 µM and 155 µM.
On the same counts, the results for Ac-[R8]ELDRLL[S5]-NH2 (staple 1-8) [truncated stapled peptide 2011] are more than 333 µM and more than 200 µM.
With Ac-N[R8]SELDRL[S5]LELN-NH2 (staple 2-9) [stapled peptide 2017], the Ki in assay [1] was 80.6 µM. Besides, the Kd in assay [2] was 27.9 µM.
As for Ac-NL[R8]ALDALL[S5]ELN-NH2 (staple 3-10) [stapled peptide 2010], the Ki in assay [1] is 68.5 µM. The molecule also returned a Kd in assay [2] of 12.6 µM.
On the same counts, the results for Ac-DL[R8]ELDRLL[S5]ELD-NH2 (staple 3-10) [stapled peptide 1913] are 21.8 µM and 13.7 µM.
Taken in the same sequence, the figures for Ac-NLSE[R8]DRLLLE[S5]N-NH2 (staple 5-12) [stapled peptide 1914] were more than 1250 µM and 120 µM.
Ac-NL[R8]ELDRLW[S5]ELN-NH2 (staple 3-10) [stapled peptide 2007]: the inhibitory constant (Ki) in assay [1] was 190 µM. The Kd in assay [2] was 60.6 µM.
On the same counts, the results for Ac-NLSELDRL[R5]LE[S5]N-NH2 (staple 9-12) [stapled peptide 1921] are 492 µM and more than 200 µM.
Taken in the same sequence, the figures for Ac-NL[R8]QLDRLL[S5]QLN-NH2 (staple 3-10) [stapled peptide 1910] were 46.8 µM and 22.6 µM.
